Consider one substance from paper PMC9900762.

For the assay, the target named is P. falciparum cytochrome c-2 (PF3D7_1311700), recombinant (P. falciparum) (UniProt Q8I6T6). In words: crystal structure.

What is called stoichiometry N is a count of units in the complex or per binding partner. As to “P. falciparum cytochrome c-2 (PF3D7_1311700), recombinant (from UniProt Q8I6T6 1-159) (natural protein)”, the stoichiometry N came out at 2.
